Measurements as given in the supplement of paper PMC9170038.

Assays:
[1] = test system: MS2 coat protein; test: apparent KD of MS2 coat protein, switch OFF state (with FMN for OFF switches, without FMN for ON switches); designed switch direction (-1 OFF switch, 1 ON switch): -1; higher = weaker reporter binding; settings: FMN input: 0 or 200 uM; Eterna round: R93 (includes R88 designs)
In short: (§1)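 Apparent KD was obtained for each design as the median of normalised binding-curve fits over its clusters. RNA switches transcribed on-chip from Illumina sequencing clusters were titrated with SNAP-549-labelled MS2 coat protein (twofold steps, 0.7 or 1.5 nM to 3 µM) in 100 mM Tris-HCl pH 7.5, 80 mM KCl, 4 mM MgCl2, without or with constant ligand.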

[2] = test system: MS2 coat protein; test: apparent KD of MS2 coat protein, switch ON state; designed switch direction (-1 OFF switch, 1 ON switch): -1; higher = weaker reporter binding; settings: FMN input: 0 or 200 uM; Eterna round: R93 (includes R88 designs)
In short: as §1

| Sequence | apparent KD of MS2 coat protein [1] [µM] | apparent KD of MS2 coat protein [2] [µM] |
| --- | --- | --- |
| GUGUACAGAGGAUAUAUAUGAGCAUGGAAACAUGCAUCCUCACAUGAGGAUCACCCAUGUAGAAGGCUGUACAC [Ex2: 704] | 0.0413 | 0.624 |
| ACCUUACAUGAGGAUCACCCAUGUUAGGAUAUCUCGCUCUCGCAGUCACAGCGCAAGCAGAGAAGGGACACGGG [Maretien] | 0.0366 | 0.0326 |
| AGCAGUACAGGAUAUACAUGAGGAUCACCCAUGUGAAAAAAAAGUGGCGUACCACAAAGUAGAAGGGUACUGCA [Mat - Exclusion 3 - JL mod - D32] | 0.108 | 0.0354 |
| AAAAAGGUAGGAUAUACAUGAGGAUCACCCAUGUAAAAAAACGCAGAAAAAAACAAUUGUAGAAGGGCCAAAAA [Ex3 Malc#6] | 0.0106 | 0.0159 |
| AAAAUACAUGAGGAUCACCCAUGUGAGGAUAUGAGAAAGCAAAUAAAAUAAAGCAAACUCAGAAGGCACAAAAA [EX 1 May 25] | 0.0502 | 0.0395 |
| UAAAAGGUAGGAUAUACUUGGAAGACCUGCCAACAAUAACAACAUGAGGAUCACCCAUGUAGAAGGACCAAUAU [Edtiatlema] | 0.0195 | 0.0232 |
| CAGUACUGAGGAUAUACAUGAGGAUCACCCAUGUGAUCAAGCUACGAAAGUAGCACAUGUAGAAGGCAGUACUG [Ex3: 808] | 0.0191 | 0.024 |
| ACGAAACAUGAGGAUCACCCAUGUCAGGAUAUGAACGAAAAUAAAUAAAAAUAAAAGUUCAGAAGGGACGACGA [66%, Wbt, 24] | 0.053 | 0.0395 |
| AAGAUGUGAGGAUAUGCUUGUCGUCACAAAAGUGAUGACGAGCAGAAGGCACAUGAGGAUCACCCAUGUAAAGA [Opal 26] | 0.147 | 0.0901 |
| AAAACGCUAGGAUAUACAAAAAAAAAGGGAAAAAAAAAGGGACAUGAGGAUCACCCAUGUAGAAGGAGCAAAAA [Diamond 87] | 0.108 | 0.0685 |
| GUGUACAGAGGAUAUACUGGAGCAUGGAAACAUGCAAGAUCACAUGAGGAUCACCCAUGUAGAAGGCUGUACAC [Ex2: 742] | 0.0218 | 0.119 |
| AACAGUACAGGAUAUACAUGAGGAUCACCCAUGUGACAUAAAUAAAACAAAAAUAAAAGUAGAAGGGUACUGGA [Ruby 43] | 0.06 | 0.0285 |
| AAAAAGGCAGGAUAUACAUGAGGAUCACCCAUGUUAAAAAAAAAAAAAAAAAAAAAGUGUAGAAGGGCCAAAAA [Default title] | 0.0476 | 0.0374 |
| CUCAUGUGAGGAUAUCAGUAGUAAAAAAAAAAAAUUACUACUGAGAAGGCACAUGAGGAUCACCCAUGUACCUU [EX4 326: Super Stable 26] | 0.0426 | 0.0377 |
| AACAGUACAGGAUAUACAUGAGGAUCACCCAUGUGAGAAAUAAGUGGCGUACCACAAAGUAGAAGGGUACUGGA [Mat - Exclusion 3 - JL mod - D21] | 0.15 | 0.0326 |
| AAAGGACGAGGAUAUACAUGAGGAUCACCCAUGUAAAAAACAUAAAAAAAGAACUUAUGUAGAAGGCGUCCAAA [69%, Moding Meechl, 3] | 0.399 | 0.0527 |
| GAAACACAUGAGGAUCACCCAUGUCAGGAUAUUCAAACAAAAACAAAACAAAACAAACGAAGAAGGGACAAAAG [Mat - Same state - Mayanna Mod - D102] | 0.0326 | 0.027 |
| AAAAAGGGAGGAUAUACAGGAGGUAAGGUCAAAAAAAAAAAACAUGAGGAUCACCCAUGUAGAAGGUUUAAAAA [Ecls2-V] | 0.031 | 0.0258 |
| AGCACGUCAGGAUAUACGAAAAAAAAGGGUAAACUAAAGGGACAUGAGGAUCACCCAUGUAGAAGGGACAAGCA [Diamond 92] | 0.245 | 0.0908 |
| AAAUGUUGAGGAUAUACAUGAGGAUCACCCAUGUGUAAAAAUAAAUACACAAAAGAAAGUAGAAGGCAACAAAA [Ex 3 May 11] | 0.0797 | 0.0287 |
| GUGUACAGAGGAUAUACAUGAGCAUGGAAUCAUGCAGGAUCACAUGAGGAUCACCCAUGUAGAAGGCUGUACAC [LROPPY Exclusion 2 - v06_mod Brourd] | 0.0398 | 0.0669 |
| CAAAAGGAAGGAUAUACAUAAUAAAACGGGCGGGCACCUUGACAUGAGGAUCACCCAUGUAGAAGGUCCAAUAA [Ramaanan] | 0.0181 | 0.0169 |
